Data published in PMC12622350.

Target: T1, NikR (Helicobacter pylori 26695) (UniProt O25896)
T1 sequence: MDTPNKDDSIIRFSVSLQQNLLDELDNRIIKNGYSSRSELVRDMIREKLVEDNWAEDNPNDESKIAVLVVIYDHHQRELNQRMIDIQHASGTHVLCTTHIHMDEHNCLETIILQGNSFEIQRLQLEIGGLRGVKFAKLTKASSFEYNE
Experiment: EMSA

With “TAAGCTTTTTTCTTTTTTTTTGATTTAATACTAGGTATAATTTTAATTCCACCTAACAAGGAAAAGCTATGAAAGTAACACAAGGCATTGCTAACGACTTTTTTGCCCTAACAAACACGA (double strand) [Probe-flgR 2]” the binding was “binds”.

With “TAGCAATGTTTTGATTTACTAAGATTAACAGAAGCGTTCATTAACTAATTATTATTTAAAATGAATTAGTGTTATATCTTTGAAGCGCTATAAAATCGTTATTAGAAGTGCGTTTAATAC (double strand) [OPhp0073]” the binding was “binds”.

With “TTGGGTTGATTTAACTCAAGCAAATTTTCTTCAATCCTAACAAATTTGGCTGCAAATTAAAAAATTTAAGCTTTTTTCTTTTTTTTTGATTTAATACTAGGTATAATTTTAATTCCACCT (double strand) [Probe-flgR 1]” the binding was “binds”.
